Common to all, as to test: SPOT array
The target in assay [1] is T1, Yhr016c SH3 (YSC84_YEAST), P32793.
T1 chain: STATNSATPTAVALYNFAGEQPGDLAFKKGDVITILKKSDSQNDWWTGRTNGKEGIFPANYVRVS

The target of assay [2] is T2, Boi1 SH3 (BOI1_YEAST), P38041.
T2 chain: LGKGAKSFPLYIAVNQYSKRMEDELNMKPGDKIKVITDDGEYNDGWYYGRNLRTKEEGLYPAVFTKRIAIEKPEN

For assay [3], the target named is T3, Yfr024 SH3 (LSB3_YEAST), P43603.
T3 chain: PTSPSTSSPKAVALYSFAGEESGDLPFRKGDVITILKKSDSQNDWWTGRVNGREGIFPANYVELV

Assay [4] deals with T4, Boi2 SH3 (BOI2_YEAST), P39969.
T4 chain: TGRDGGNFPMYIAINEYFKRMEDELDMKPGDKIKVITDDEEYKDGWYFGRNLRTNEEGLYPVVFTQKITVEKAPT

Assay [5] concerns the target T5, Rvs167 SH3 (RV167_YEAST), P39743.
T5 chain: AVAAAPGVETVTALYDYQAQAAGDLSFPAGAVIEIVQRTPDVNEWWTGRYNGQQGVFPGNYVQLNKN

With VSTPPVPKKFQEIF [YDL107W 9-22], the normalised SPOT signal, Boehringer light units (BLU); mean over the file's lines of this peptide amounted to 55.4 in assay [1]; 62.2 in assay [2]; 695 in assay [3]; 35.5 in assay [4]; 53.6 in assay [5].

Turning to WISPDTPLKFPLNE [YJL093C 636-649], the normalised SPOT signal, Boehringer light units (BLU); mean over the file's lines of this peptide in assay [1] came to 364; in assay [2] it was 85.4; in assay [3], 5890; in assay [4], 227; in assay [5] it was 168.

As for VTKPVVPKKTKKSA [YLR087C 319-332], the normalised SPOT signal, Boehringer light units (BLU); mean over the file's lines of this peptide in assay [1] was found to be 136; in assay [2] it was 164; in assay [3] it was 861; in assay [4] it was 19; in assay [5] it was 1.

In the case of WNDPSDPTKGFQYL [YMR207C 1538-1551], the normalised SPOT signal, Boehringer light units (BLU); mean over the file's lines of this peptide in assay [1] came out at 25.5; in assay [2] it was 30.3; in assay [3], 1300; in assay [4], 47.1; in assay [5] it was 48.9.

As to VVLPKFPDKSFVLD [YLR215C 239-252], the normalised SPOT signal, Boehringer light units (BLU); mean over the file's lines of this peptide in assay [1] is 168; in assay [2] it was 94.3; in assay [3], 533; in assay [4], 34; in assay [5], 22.6.

Regarding VSPPFFPEKELNNR [YKR010C 454-467], the normalised SPOT signal, Boehringer light units (BLU); mean over the file's lines of this peptide in assay [1] was 97.4; in assay [2], 41.2; in assay [3], 323; in assay [4], 25.6; in assay [5], 32.6.

In the case of VTLPTGPAKIIWEK [YHR007C 510-523], the normalised SPOT signal, Boehringer light units (BLU); mean over the file's lines of this peptide is 143 in assay [1]; 94.8 in assay [2]; 38.2 in assay [3]; 19.3 in assay [4]; 24.1 in assay [5].

Regarding VVIPPVPSRYSDER [YDL117W 95-108], the normalised SPOT signal, Boehringer light units (BLU); mean over the file's lines of this peptide stood at 3610 in assay [1]; 50.6 in assay [2]; 4480 in assay [3]; 0 in assay [4]; 1860 in assay [5].

Take VYSPIQPRRRKDSS [YLR228C 72-85]: the normalised SPOT signal, Boehringer light units (BLU); mean over the file's lines of this peptide was 2250 in assay [1]; 571 in assay [2]; 13300 in assay [3]; 1180 in assay [4]; 580 in assay [5].

In the case of VYVPINPPKELDQR [YJL060W 164-177], the normalised SPOT signal, Boehringer light units (BLU); mean over the file's lines of this peptide in assay [1] turned out to be 132; in assay [2], 32.4; in assay [3], 298; in assay [4] it was 17.4; in assay [5], 17.1.

VVSPSHPFKQLQKI [YIL146C 146-159]: the normalised SPOT signal, Boehringer light units (BLU); mean over the file's lines of this peptide in assay [1] came to 173; in assay [2], 59.7; in assay [3], 70.5; in assay [4] it was 50.3; in assay [5], 55.9.

Take VTQPITPVKKRRSE [YNL230C 264-277]: the normalised SPOT signal, Boehringer light units (BLU); mean over the file's lines of this peptide in assay [1] turned out to be 128; in assay [2] it was 442; in assay [3] it was 2650; in assay [4], 90; in assay [5], 56.8.

As to VTTPLKPKRLAIPI [YJR083C 47-60], the normalised SPOT signal, Boehringer light units (BLU); mean over the file's lines of this peptide in assay [1] came out at 364; in assay [2], 122; in assay [3], 1890; in assay [4] it was 20.4; in assay [5], 17.7.

WNLPWSPFKITTIM [YDR211W 95-108]: the normalised SPOT signal, Boehringer light units (BLU); mean over the file's lines of this peptide is 1040 in assay [1]; 143 in assay [2]; 6480 in assay [3]; 2670 in assay [4]; 870 in assay [5].

Regarding WKPPDLPIRLRKRP [YIL156W 502-515], the normalised SPOT signal, Boehringer light units (BLU); mean over the file's lines of this peptide in assay [1] was 24500; in assay [2] it was 7340; in assay [3], 47500; in assay [4] it was 2000; in assay [5], 12900.

For VSDPYVPTRNTFNY [YDL020C 142-155], the normalised SPOT signal, Boehringer light units (BLU); mean over the file's lines of this peptide in assay [1] came out at 268; in assay [2] it was 174; in assay [3], 814; in assay [4], 23.2; in assay [5], 60.9.

Consider VTVPKLPFKLAVNK [YBR040W 181-194], for which the normalised SPOT signal, Boehringer light units (BLU); mean over the file's lines of this peptide in assay [1] was determined as 230; in assay [2] it was 0; in assay [3] it was 3360; in assay [4], 69.6; in assay [5], 50.5.

For the molecule VTLPISPSRASISF [YGL235W 70-83], the normalised SPOT signal, Boehringer light units (BLU); mean over the file's lines of this peptide in assay [1] was determined as 79.2; in assay [2], 52.6; in assay [3], 951; in assay [4], 33.4; in assay [5], 25.8.

For VSIPFDPSKDTFDH [YEL031W 741-754], the normalised SPOT signal, Boehringer light units (BLU); mean over the file's lines of this peptide in assay [1] was found to be 70.3; in assay [2] it was 105; in assay [3], 0; in assay [4], 34.1; in assay [5] it was 72.7.

The values are drawn from paper PMC314469, “Protein Interaction Networks by Proteome Peptide Scanning” (PLoS Biology, 2004).
